In the test the target is mutant forms of RUVBL1 and RUVBL2. In words: co-IP.

B1: RL-NOP58 (natural protein)
chain: MLVLFETSVGYAIFKVLNEKKLQEVDSLWKEFETPEKANKIVKLKHFEKFQDTAEALAAFTALMEGKINKQLKKVLKKIVKEAHEPLAVADAKLGGVIKEKLNLSCIHSPVVNELMRGIRSQMDGLIPGVEPREMAAMCLGLAHSLSRYRLKFSADKVDTMIVQAISLLDDLDKELNNYIMRCREWYGWHFPELGKIISDNLTYCKCLQKVGDRKNYASAKLSELLPEEVEAEVKAAAEISMGTEVSEEDICNILHLCTQVIEISEYRTQLYEYLQNRMMAIAPNVTVMVGELVGARLIAHAGSLLNLAKHAASTVQILGAEKALFRALKSRRDTPKYGLIYHASLVGQTSPKHKGKISRMLAAKTVLAIRYDAFGEDSSSAMGVENRAKLEARLRTLEDRGIRKISGTGKALAKTEKYEHKSEVKTYDPSGDSTLPTCSKKRKIEQVDKEDEITEKKAKKAKIKVKVEEEEEEKVAEEEETSVKKKKKRGKKKHIKEEPLSEEEPCTSTAIASPEKKKKKKKKRENED
The molecule B1 registered a co-IP efficiency of under 0.1%.

(Values after PMC7826282.)
